Experiment [1] addresses T1, FcγRIIa H (FcγRIIa, allotype with His at position 131), extracellular domain with C-terminal His tag (human, UniProt P12318 34-217).
T1 construct: extracellular domain; also called FcgRIIa H; 2aH; not shown: His tag at the C terminus
T1 sequence (looked up): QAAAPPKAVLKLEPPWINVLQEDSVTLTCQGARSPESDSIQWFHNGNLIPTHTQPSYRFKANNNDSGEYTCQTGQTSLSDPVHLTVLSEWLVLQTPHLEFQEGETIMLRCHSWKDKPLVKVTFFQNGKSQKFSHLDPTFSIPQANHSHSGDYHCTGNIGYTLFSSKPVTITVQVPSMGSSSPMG
The experiment can be described thus: SPR (Biacore); He/Con_2aH divided by He/Con_2b (FcγRIIb). Background: SPR reads the build-up and loss of mass on a sensor chip optically.

In experiment [2] the target is T1, FcγRIIa H (FcγRIIa, allotype with His …). The experiment can be described thus: SPR (Biacore), relative binding vs GpH7-A5/GpH7-B3/GpL16-k0.
For experiment [3], the target named is T2, FcγRIIb, extracellular domain with C-terminal His tag (human, UniProt P31994 43-217).
T2 construct: extracellular domain; also called FcgRIIb; 2b; not shown: His tag at the C terminus
T2 sequence (looked up): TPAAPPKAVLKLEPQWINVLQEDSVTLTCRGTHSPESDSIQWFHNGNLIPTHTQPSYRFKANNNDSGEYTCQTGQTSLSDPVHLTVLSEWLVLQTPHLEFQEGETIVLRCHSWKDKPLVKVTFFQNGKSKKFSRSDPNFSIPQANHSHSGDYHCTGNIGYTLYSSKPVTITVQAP
Described as above.

For experiment [4], the target named is T3, FcγRIIa H (human FcγRIIa, allotype H131, extracellular domain with C-terminal His tag) (human, UniProt P12318 34-217).
T3 construct: extracellular domain; Soluble extracellular domain expressed in FreeStyle293 cells; used as analyte in Biacore; also called FcgRIIa H; FcγRIIa type H; not shown: His tag attached to the C terminus
T3 sequence (looked up): T1 sequence (looked up)
The experiment in a line: SPR (Biacore T100), antibody captured on antigen-peptide chip, FcγRIIa H as analyte; relative binding. On the procedure: Analysis of interaction between objective antibody and the FcγR was carried out using Biacore T100 (GE Healthcare). HBS-EP+ (GE Healthcare) was used as the running buffer, and the measurement temperature was set to 25° C. Chips produced by immobilizing the antigen peptide by the amine coupling method to a Series S Sencor Chip CM5 (GE Healthcare), or alternatively, chips produced by allowing preliminarily biotinylated antigen peptides to interact with and immobilize onto a Series S Sensor Chip SA (certified) (GE Healthcare) were used. Antibodies of interest were captured onto an antigen peptide-immobilized chip, and allowed to interact to each FcγR diluted with running buffer. To regenerate and repeatedly use the chip, the antibodies captured on the chip were washed off by reacting 10 mM glycine-HCl, pH 1.5.

B1: GpH7-A5/GpH7-B3 variant K326_20W/GpL16-k0 (antibody, human IgG1, kappa)
heavy 1: not shown
heavy 2: not shown
light: DIVMTQSPLSLPVTPGEPASISCQASESLVHSNRNTYLHWYLQKPGQSPQLLIYKVSNRFSGVPDRFSGSGSGTDFTLKISRVEAEDVGVYYCSQNTHVPPTFGQGTKVEIERTVAAPSVFIFPPSDEQLKSGTASVVCLLNNFYPREAKVQWKVDNALQSGNSQESVTEQDSKDSTYSLSSTLTLSKADYEKHKVYACEVTHQGLSSPVTKSFNRGEC
notes: Heterodimerized anti-glypican-3 IgG1; mutation in one H chain only; also called He Ab
Consider B1, for which, in experiment [1], the “He_2aH/2b (IIaH/IIb)” value came out at 0.56 ratio. Moreover, the He/Con_2aH in experiment [2] is 83.3 % of HeCon Ab (=100). Moreover, the He/Con_2b in experiment [3] is 148 % of HeCon Ab (=100).

B2: GpH7-B3 variant T335_02A/GpL16-k0 (homodimerized antibody, Ho Ab) (antibody, human IgG1, kappa)
heavy: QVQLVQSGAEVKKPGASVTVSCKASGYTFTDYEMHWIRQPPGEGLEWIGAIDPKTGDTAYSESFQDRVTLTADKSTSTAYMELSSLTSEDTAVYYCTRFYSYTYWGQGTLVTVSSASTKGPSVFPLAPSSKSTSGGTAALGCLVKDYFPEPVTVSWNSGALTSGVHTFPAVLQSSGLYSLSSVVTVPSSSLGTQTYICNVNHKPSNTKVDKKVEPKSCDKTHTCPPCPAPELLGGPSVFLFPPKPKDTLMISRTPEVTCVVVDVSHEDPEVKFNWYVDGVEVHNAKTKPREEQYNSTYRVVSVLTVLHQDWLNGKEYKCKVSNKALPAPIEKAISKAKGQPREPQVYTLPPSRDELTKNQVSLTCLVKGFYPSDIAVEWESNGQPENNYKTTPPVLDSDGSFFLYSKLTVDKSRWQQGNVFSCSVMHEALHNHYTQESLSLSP
light: B1 light
notes: Anti-glypican-3 IgG1 (G1d with K439E); the alteration stands in both H chains; also called T335_02A Ho Ab; T335A in both H chains
With B2, the Ho/Con_2aH in experiment [4] was 103 relative binding activity (control homodimerized antibody GpH7-B3/GpL16-k0 = 100).

B3: GpH7-A5/GpH7-B3 variant T335_02A/GpL16-k0 (heterodimerized antibody, He Ab) (antibody, human IgG1, kappa)
heavy 1: not shown
heavy 2: not shown
light: B1 light
notes: Anti-glypican-3 IgG1 heterodimer (D356K/H435R chain GpH7-A5 with K439E chain GpH7-B3 variant); the alteration stands in one H chain only; EU numbering; also called T335_02A He Ab; T335A in one H chain
As for B3, the He/Con_2aH in experiment [4] was 101 relative binding activity (control heterodimerized antibody GpH7-A5/GpH7-B3/GpL16-k0 = 100).

B4: GpH7-A5/GpH7-B3 variant N325_06M/GpL16-k0 (antibody, human IgG1, kappa)
heavy 1: not shown
heavy 2: not shown
light: B1 light
notes: as for B1
Regarding B4, the “He_2aH/2b (IIaH/IIb)” value in experiment [1] worked out at 0.22 ratio. Also, the He/Con_2aH in experiment [2] was 48.2 % of HeCon Ab (=100). For the same molecule, the He/Con_2b in experiment [3] is 217 % of HeCon Ab (=100).

B5: GpH7-B3 variant Y300_07I/GpL16-k0 (homodimerized antibody, Ho Ab) (antibody, human IgG1, kappa)
heavy: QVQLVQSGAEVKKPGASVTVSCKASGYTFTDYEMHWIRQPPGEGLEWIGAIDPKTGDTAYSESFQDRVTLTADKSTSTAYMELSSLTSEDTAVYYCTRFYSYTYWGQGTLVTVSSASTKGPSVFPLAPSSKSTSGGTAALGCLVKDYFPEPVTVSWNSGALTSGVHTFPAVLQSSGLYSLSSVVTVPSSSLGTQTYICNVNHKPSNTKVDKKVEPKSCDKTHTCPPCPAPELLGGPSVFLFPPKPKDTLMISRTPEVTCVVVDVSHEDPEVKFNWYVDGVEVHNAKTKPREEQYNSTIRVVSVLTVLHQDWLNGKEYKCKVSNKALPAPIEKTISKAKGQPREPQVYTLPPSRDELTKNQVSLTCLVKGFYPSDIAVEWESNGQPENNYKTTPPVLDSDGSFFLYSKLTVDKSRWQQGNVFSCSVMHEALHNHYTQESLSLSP
light: B1 light
notes: Anti-glypican-3 IgG1 (G1d with K439E); the alteration stands in both H chains; EU numbering; also called Y300_07I Ho Ab; Y300I in both H chains
As to B5, the Ho/Con_2aH in experiment [4] is 122 relative binding activity (control homodimerized antibody GpH7-B3/GpL16-k0 = 100).

B6: GpH7-B3 variant T335_06M/GpL16-k0 (homodimerized antibody, Ho Ab) (antibody, human IgG1, kappa)
heavy: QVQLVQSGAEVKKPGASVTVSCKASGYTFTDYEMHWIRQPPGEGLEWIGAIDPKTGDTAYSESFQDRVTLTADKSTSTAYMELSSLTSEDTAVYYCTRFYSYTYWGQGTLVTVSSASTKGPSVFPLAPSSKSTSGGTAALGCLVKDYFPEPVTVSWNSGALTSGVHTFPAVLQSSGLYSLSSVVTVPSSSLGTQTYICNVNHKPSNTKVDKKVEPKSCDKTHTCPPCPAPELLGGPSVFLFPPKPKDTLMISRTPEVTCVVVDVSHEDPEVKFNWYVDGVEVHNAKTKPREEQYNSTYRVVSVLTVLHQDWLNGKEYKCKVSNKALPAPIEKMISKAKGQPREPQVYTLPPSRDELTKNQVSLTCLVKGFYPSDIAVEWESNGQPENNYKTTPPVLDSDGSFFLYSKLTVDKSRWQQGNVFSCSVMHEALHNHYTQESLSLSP
light: B1 light
notes: Anti-glypican-3 IgG1 (G1d with K439E); the alteration stands in both H chains; EU numbering; also called T335_06M Ho Ab; T335M in both H chains
In the case of B6, in experiment [4], the Ho/Con_2aH was 106 relative binding activity (control homodimerized antibody GpH7-B3/GpL16-k0 = 100).

B7: GpH7-B3 variant T335_08L/GpL16-k0 (homodimerized antibody, Ho Ab) (antibody, human IgG1, kappa)
heavy: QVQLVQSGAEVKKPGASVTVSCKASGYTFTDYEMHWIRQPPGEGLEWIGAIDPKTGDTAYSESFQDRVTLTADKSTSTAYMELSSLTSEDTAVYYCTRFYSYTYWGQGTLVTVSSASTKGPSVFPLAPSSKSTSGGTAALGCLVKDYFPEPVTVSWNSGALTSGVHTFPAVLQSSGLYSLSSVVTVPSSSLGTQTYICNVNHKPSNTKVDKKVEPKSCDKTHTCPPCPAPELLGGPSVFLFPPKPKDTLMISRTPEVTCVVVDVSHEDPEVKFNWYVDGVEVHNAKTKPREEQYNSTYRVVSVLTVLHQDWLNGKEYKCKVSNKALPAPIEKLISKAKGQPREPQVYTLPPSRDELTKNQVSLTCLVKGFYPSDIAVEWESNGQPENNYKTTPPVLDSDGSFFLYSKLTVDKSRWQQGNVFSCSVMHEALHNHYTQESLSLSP
light: B1 light
notes: Anti-glypican-3 IgG1 (G1d with K439E); the alteration stands in both H chains; EU numbering; also called T335_08L Ho Ab; T335L in both H chains
As for B7, in experiment [4], the Ho/Con_2aH is 106 relative binding activity (control homodimerized antibody GpH7-B3/GpL16-k0 = 100).

B8: GpH7-A5/GpH7-B3 variant T335_08L/GpL16-k0 (heterodimerized antibody, He Ab) (antibody, human IgG1, kappa)
heavy 1: not shown
heavy 2: not shown
light: B1 light
notes: Anti-glypican-3 IgG1 heterodimer; the alteration stands in one H chain only; EU numbering; also called T335_08L He Ab; T335L in one H chain
B8: in experiment [4], the He/Con_2aH is 106 relative binding activity (control heterodimerized antibody GpH7-A5/GpH7-B3/GpL16-k0 = 100).

B9: GpH7-B3 variant T335_04F/GpL16-k0 (homodimerized antibody, Ho Ab) (antibody, human IgG1, kappa)
heavy: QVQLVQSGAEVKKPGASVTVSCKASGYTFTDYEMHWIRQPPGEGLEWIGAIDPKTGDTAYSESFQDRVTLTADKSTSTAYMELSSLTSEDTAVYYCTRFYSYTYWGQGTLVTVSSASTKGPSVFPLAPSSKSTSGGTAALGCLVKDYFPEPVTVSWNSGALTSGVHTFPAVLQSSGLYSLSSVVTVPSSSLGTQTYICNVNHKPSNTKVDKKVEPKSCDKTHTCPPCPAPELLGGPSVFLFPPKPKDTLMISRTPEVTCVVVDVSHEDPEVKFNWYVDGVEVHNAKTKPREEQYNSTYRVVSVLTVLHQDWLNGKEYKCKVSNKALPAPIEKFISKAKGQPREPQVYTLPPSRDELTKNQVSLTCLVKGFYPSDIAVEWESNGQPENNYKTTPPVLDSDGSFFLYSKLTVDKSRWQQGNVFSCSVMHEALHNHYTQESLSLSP
light: B1 light
notes: Anti-glypican-3 IgG1 (G1d with K439E); the alteration stands in both H chains; EU numbering; also called T335_04F Ho Ab; T335F in both H chains
For B9, the Ho/Con_2aH in experiment [4] was 104 relative binding activity (control homodimerized antibody GpH7-B3/GpL16-k0 = 100).

B10: GpH7-A5/GpH7-B3 variant N325_05P/GpL16-k0 (antibody, human IgG1, kappa)
heavy 1: not shown
heavy 2: not shown
light: B1 light
notes: as for B1
Turning to B10, the “He_2aH/2b (IIaH/IIb)” value in experiment [1] stood at 0.8 ratio. The He/Con_2aH in experiment [2] was 20.7 % of HeCon Ab (=100). Moreover, the He/Con_2b in experiment [3] is 26 % of HeCon Ab (=100).

B11: GpH7-A5/GpH7-B3 variant N325_02A/GpL16-k0 (antibody, human IgG1, kappa)
heavy 1: not shown
heavy 2: not shown
light: B1 light
notes: as for B1
Take B11: in experiment [1], the “He_2aH/2b (IIaH/IIb)” value was 0.74 ratio. Moreover, in experiment [2], the He/Con_2aH was 47.6 % of HeCon Ab (=100). In addition, the He/Con_2b in experiment [3] is 64.4 % of HeCon Ab (=100).

B12: GpH7-B3 variant T335_05P/GpL16-k0 (homodimerized antibody, Ho Ab) (antibody, human IgG1, kappa)
heavy: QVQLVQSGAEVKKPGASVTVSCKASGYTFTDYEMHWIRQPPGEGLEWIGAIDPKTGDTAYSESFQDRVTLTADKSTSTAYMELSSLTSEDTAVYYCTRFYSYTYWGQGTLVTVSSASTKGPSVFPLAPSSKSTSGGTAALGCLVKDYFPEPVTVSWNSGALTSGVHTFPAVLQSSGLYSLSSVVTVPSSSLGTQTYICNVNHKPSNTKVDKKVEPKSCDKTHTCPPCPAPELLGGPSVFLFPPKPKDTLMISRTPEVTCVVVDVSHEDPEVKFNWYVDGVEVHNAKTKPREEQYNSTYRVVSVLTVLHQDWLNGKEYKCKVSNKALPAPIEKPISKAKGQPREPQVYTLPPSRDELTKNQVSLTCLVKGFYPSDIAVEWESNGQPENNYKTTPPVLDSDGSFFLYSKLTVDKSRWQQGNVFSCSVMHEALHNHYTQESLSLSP
light: B1 light
notes: Anti-glypican-3 IgG1 (G1d with K439E); the alteration stands in both H chains; EU numbering; also called T335_05P Ho Ab; T335P in both H chains
Regarding B12, the Ho/Con_2aH in experiment [4] was 115 relative binding activity (control homodimerized antibody GpH7-B3/GpL16-k0 = 100).

B13: GpH7-A5/GpH7-B3 variant T335_06M/GpL16-k0 (heterodimerized antibody, He Ab) (antibody, human IgG1, kappa)
heavy 1: not shown
heavy 2: not shown
light: B1 light
notes: Anti-glypican-3 IgG1 heterodimer; the alteration stands in one H chain only; EU numbering; also called T335_06M He Ab; T335M in one H chain
Regarding B13, in experiment [4], the He/Con_2aH was 103 relative binding activity (control heterodimerized antibody GpH7-A5/GpH7-B3/GpL16-k0 = 100).

B14: GpH7-A5/GpH7-B3 variant T335_09D/GpL16-k0 (heterodimerized antibody, He Ab) (antibody, human IgG1, kappa)
heavy 1: not shown
heavy 2: not shown
light: B1 light
notes: Anti-glypican-3 IgG1 heterodimer; the alteration stands in one H chain only; EU numbering; also called T335_09D He Ab; T335D in one H chain
As to B14, in experiment [4], the He/Con_2aH is 107 relative binding activity (control heterodimerized antibody GpH7-A5/GpH7-B3/GpL16-k0 = 100).

For the origin of these results see US20150344570A1 (published 2015).
